Measurements: patent US20180071403A1 (Daiichi Sankyo, published 2018)

B1: Antibody-drug conjugate (10) (antibody, V domains shown)
VH: EVQLVQSGAEVKKPGSSVKVSCKASGYTITDSNIHWVRQAPGQSLEWIGYIYPYNGGTDYNQKFKNRATLTVDNPTNTAYMELSSLRSEDTAFYYCVNGNPWLAYWGQGTLVTVSS
VL: DIQLTQSPSTLSASVGDRVTITCRASQSLDNYGIRFLTWFQQKPGKAPKLLMYAASNQGSGVPSRFSGSGSGTEFTLTISSLQPDDFATYYCQQTKEVPWSFGQGTKVEVKR
modifications: drug-linker -(Succinimid-3-yl-N)-CH2CH2CH2CH2CH2-C(=O)-DGGFG-NH-CH2CH2CH2-C(=O)-(NH-DX) (exatecan) bound by thioether at reduced hinge disulfide cysteines (positions not given); average 6.6 drug molecules per antibody
B2: M30 antibody (antibody, mouse IgG2a, kappa, V domains shown)
VH: EVQLQQSGPELVKPGASVKMSCKASGYTFTNYVMHWVKQKPGQGLEWIGYINPYNDDVKYNEKFKGKATQTSDKSSSTAYMELSSLTSEDSAVYYCARWGYYGSPLYYFDYWGQGTTLTVSS
VL: QIVLSQSPTILSASPGEKVTMTCRASSRLIYMHWYQQKPGSSPKPWIYATSNLASGVPARFSGSGSGTSYSLTISRVEAEDAATYYCQQWNSNPPTFGTGTKLELKR
notes: Mouse monoclonal anti-B7-H3 antibody from hybridoma M30
B3: Antibody-drug conjugate (6) (antibody, human IgG1, kappa, V domains shown)
VH: QVQLVQSGAEVKKPGSSVKVSCKASGYTFTNYVMHWVRQAPGQGLEWMGYINPYNDDVKYNEKFKGRVTITADESTSTAYMELSSLRSEDTAVYYCARWGYYGSPLYYFDYWGQGTLVTVSS
VL: EIVLTQSPATLSLSPGERATLSCRASSRLIYMHWYQQKPGQAPRPLIYATSNLASGIPARFSGSGSGTDFTLTISSLEPEDFAVYYCQQWNSNPPTFGQGTKVEIKR
modifications: drug-linker -(Succinimid-3-yl-N)-CH2CH2CH2CH2CH2-C(=O)-DGGFG-NH-CH2CH2CH2-C(=O)-(NH-DX) (exatecan) bound by thioether at reduced hinge disulfide cysteines (positions not given); average 6.2 drug molecules per antibody
B4: Antibody-drug conjugate (23) (antibody, human IgG1, kappa, V domains shown)
VH: B3 VH
VL: B3 VL
modifications: drug-linker -(Succinimid-3-yl-N)-CH2CH2CH2CH2CH2-C(=O)-DGGFG-(NH-DX) (exatecan) bound by thioether at reduced hinge disulfide cysteines (positions not given); average 6.6 drug molecules per antibody
B5: Antibody-drug conjugate (7) (antibody, V domains shown)
VH: QIQLQQSGPEVVKPGASVKISCKASGYTFTDYYITWVKQKPGQGLEWIGWIYPGSGNTKYNEKFKGKATLTVDTSSSTAFMQLSSLTSEDTAVYFCANYGNYWFAYWGQGTQVTVSA
VL: DIVLTQSPASLAVSLGQRATISCKASQSVDFDGDSYMNWYQQKPGQPPKVLIYAASNLESGIPARFSGSGSGTDFTLNIHPVEEEDAATYYCQQSNQDPWTFGGGTKLEIKR
modifications: drug-linker -(Succinimid-3-yl-N)-CH2CH2CH2CH2CH2-C(=O)-DGGFG-NH-CH2CH2CH2-C(=O)-(NH-DX) (exatecan) bound by thioether at reduced hinge disulfide cysteines (positions not given); average 4.6 drug molecules per antibody
B6: Antibody-drug conjugate (25) (antibody, V domains shown)
VH: B5 VH
VL: B5 VL
modifications: drug-linker -(Succinimid-3-yl-N)-CH2CH2CH2CH2CH2-C(=O)-DGGFG-(NH-DX) (exatecan) bound by thioether at reduced hinge disulfide cysteines (positions not given); average 4.8 drug molecules per antibody
B7: Antibody-drug conjugate (24) (antibody, V domains shown)
VH: B5 VH
VL: B5 VL
modifications: drug-linker -(Succinimid-3-yl-N)-CH2CH2CH2CH2CH2-C(=O)-DGGFG-(NH-DX) (exatecan) bound by thioether at reduced hinge disulfide cysteines (positions not given); average 2.9 drug molecules per antibody
B8: Antibody-drug conjugate (8) (antibody, V domains shown)
VH: B5 VH
VL: B5 VL
modifications: drug-linker -(Succinimid-3-yl-N)-CH2CH2CH2CH2CH2-C(=O)-DGGFG-NH-CH2CH2CH2-C(=O)-(NH-DX) (exatecan) bound by thioether at reduced hinge disulfide cysteines (positions not given); average 7.9 drug molecules per antibody

Tests used:
CD33 = CD33 (UniProt P20138 18-364, limits assumed); assay: cell-based or functional assay
CD33, sequence (P20138 18-364 limits assumed): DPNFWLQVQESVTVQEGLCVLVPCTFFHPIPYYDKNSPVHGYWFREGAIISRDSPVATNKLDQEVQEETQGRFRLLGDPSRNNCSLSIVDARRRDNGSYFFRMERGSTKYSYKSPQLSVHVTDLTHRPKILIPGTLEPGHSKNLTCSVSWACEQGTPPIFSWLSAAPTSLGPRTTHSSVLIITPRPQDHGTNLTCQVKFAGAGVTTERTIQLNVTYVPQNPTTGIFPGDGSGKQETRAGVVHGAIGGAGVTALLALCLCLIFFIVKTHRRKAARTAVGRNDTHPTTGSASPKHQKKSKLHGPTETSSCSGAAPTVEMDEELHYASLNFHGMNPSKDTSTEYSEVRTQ

human B7-H3 variant 1 [1] = target: T1, human B7-H3 variant 1 (human, UniProt Q5ZPR3 27-534); assay: flow cytometry, M30 at 10 µg/mL on CCRF-CEM clones transfected with B7-H3 variant 1, fluorescein-labelled anti-mouse IgG
T1 construct: also called 4Ig-B7-H3
T1 sequence: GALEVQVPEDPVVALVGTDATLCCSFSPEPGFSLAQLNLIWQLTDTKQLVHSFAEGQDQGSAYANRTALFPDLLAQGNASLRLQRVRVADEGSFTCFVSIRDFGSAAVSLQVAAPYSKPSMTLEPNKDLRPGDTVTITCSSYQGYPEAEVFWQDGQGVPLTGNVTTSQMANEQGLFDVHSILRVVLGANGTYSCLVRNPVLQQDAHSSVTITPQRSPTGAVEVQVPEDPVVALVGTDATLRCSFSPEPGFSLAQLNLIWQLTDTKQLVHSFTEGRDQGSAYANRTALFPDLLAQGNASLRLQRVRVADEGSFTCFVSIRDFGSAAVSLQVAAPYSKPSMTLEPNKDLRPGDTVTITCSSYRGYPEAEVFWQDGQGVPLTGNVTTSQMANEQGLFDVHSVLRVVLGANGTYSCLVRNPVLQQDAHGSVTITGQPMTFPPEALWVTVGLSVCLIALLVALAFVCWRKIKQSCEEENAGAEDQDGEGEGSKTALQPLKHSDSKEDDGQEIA
Protocol: Flow cytometry was used for confirming B7-H3 expression in each recovered clone. Specifically, each recovered clone was washed twice with PBS containing 5% FBS, thereafter suspended by the addition of PBS containing 5% FBS and 10 μg/mL M30, and left standing at 4° C. for 30 minutes. […] The clone was washed twice with PBS containing 5% FBS, thereafter resuspended in PBS containing 5% FBS, and detected by using a flow cytometer (FC500: Beckman Coulter, Inc.).

human B7-H3 variant 1 [2] = target: T1, human B7-H3 variant 1; assay: cell-based or functional assay
CD30 = target: T2, CD30 (UniProt P28908 19-595, limits assumed); assay: cell-based or functional assay
T2 sequence (looked up): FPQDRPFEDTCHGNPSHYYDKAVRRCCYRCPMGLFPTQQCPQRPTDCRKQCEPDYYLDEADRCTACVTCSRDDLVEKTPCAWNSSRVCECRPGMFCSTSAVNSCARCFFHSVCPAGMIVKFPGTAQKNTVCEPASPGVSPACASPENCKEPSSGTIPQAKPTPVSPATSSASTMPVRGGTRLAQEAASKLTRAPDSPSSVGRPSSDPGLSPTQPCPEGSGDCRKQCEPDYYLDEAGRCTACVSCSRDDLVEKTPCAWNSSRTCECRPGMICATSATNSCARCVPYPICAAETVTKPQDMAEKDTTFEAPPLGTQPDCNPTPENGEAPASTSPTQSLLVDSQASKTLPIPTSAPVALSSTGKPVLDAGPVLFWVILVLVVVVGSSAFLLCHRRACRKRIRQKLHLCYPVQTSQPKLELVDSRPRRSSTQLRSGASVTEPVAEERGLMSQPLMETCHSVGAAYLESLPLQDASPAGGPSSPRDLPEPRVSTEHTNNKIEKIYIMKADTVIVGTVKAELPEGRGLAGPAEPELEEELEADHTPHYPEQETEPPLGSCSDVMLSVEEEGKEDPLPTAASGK

Row | Binder | IC50, anticellular effect (cell growth inhibition, CellTiter-Glo) on SR cells (CD30) | other results
1 | B1 |  | IC50, cytotoxic effect (cell growth inhibition, CellTiter-Glo) on HL-60 cells (CD33): < 1000 pM
2 | B2 |  | binding result (human B7-H3 variant 1 [1]): binds
3 | B3 |  | IC50, anticellular effect (cell growth inhibition, CellTiter-Glo) on CEM_V1_3.1_2 cells (human B7-H3 variant 1 [2]): < 100 pM
4 | B4 |  | IC50, anticellular effect (cell growth inhibition, CellTiter-Glo) on CEM_V1_3.1_2 cells (human B7-H3 variant 1 [2]): < 100 pM
5 | B5 | < 10 pM | 
6 | B6 | < 10 pM | 
7 | B7 | < 10 pM | 
8 | B8 | < 10 pM | 
